Each block holds one molecule with its values, some of them ahead of it.
Legend:
canine B cells = conditions: Veterinary Journal, 2006, vol 171, 556; cited from earlier work
Control Cells = test: FACS binding to control cells; conditions: antibody 2.5 μg/mL
Protocol: (§1) In the present example, the antibody variants (2.5 μg/mL) are incubated with mammalian cells expressing the recombinant feline CD20 or canine CD20 or control cells. The amount of bound antibody is assessed by detection with a fluorescent-labeled reporter antibody reagent. Several controls are utilized to determine the background fluorescence: (i) CD20 expressing cells are incubated with the conjugated secondary antibody with an isotype antibody, and (ii) Control cells are incubated with the anti-CD20 antibodies.

[1] = test system: feline CD20 expressed in mammalian cells; test: FACS binding to cells expressing recombinant feline CD20; conditions: for mean fluorescence, Feline CD20: antibody 2.5 μg/mL; for binding to feline CD20 (in words): mammalian cells
Chain of feline CD20 expressed in mammalian cells (as listed by the source): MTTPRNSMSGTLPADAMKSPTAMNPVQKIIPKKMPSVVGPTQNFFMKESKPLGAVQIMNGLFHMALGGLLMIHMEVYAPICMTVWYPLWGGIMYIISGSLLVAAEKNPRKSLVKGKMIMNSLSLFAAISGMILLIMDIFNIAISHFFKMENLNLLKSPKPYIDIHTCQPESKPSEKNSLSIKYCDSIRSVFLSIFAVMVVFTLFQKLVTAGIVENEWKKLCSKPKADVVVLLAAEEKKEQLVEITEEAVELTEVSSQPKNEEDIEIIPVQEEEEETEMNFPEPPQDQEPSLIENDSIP
Protocol: as §1, with “The binding of the antibody variants of the present invention raised to canine CD20 can be assessed by FACS analysis for their binding to feline CD20 according to standard immunological techniques (see Veterinary Immunology and Immunopathology 2005, 106:179-196; Brousseau et al., Manual of Immunology Methods, CRC Press, 1998). In” for “In”

[2] = molecular target: T1, recombinant canine CD20 expressed in CHO cells (Canis lupus familiaris, UniProt Q3C2E2, A201T/C77Y/G273E/L198V); test: Binding affinity to recombinant canine CD20 expressed in CHO cells by FACS; conditions: CHO cells expressing canine CD20
T1 construct: are transfected with an expression vector encoding the full-length canine CD20 protein; expressed in transfected cells; host or cells: CHO cells (CHO-DG44)
T1 sequence (Q3C2E2 1-297 C77Y/L198V/A201T/G273E): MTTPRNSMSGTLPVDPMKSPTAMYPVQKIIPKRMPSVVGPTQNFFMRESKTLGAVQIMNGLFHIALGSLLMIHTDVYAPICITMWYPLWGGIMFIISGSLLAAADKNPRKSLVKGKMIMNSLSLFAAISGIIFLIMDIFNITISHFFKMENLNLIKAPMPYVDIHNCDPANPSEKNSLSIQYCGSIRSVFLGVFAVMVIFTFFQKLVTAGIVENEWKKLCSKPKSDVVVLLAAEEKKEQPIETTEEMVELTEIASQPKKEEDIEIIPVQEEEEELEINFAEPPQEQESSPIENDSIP
Protocol: The antibody variants of the present invention are compared for their binding affinity to canine CD20. Binding affinity is assessed by measuring binding to the recombinant canine CD20 expressed in CHO cells by FACS analysis as described above.

[3] = molecular target: T2, recombinant canine CD20 expressed in HEK cells (Canis lupus familiaris, UniProt Q3C2E2, A201T/C77Y/G273E/L198V); test: FACS binding to cells expressing recombinant canine CD20; conditions: for mean fluorescence, Canine CD20: antibody 2.5 μg/mL
T2 construct: expressed in transfected cells; host or cells: HEK cells
T2 sequence (Q3C2E2 1-297 C77Y/L198V/A201T/G273E): T1 sequence (Q3C2E2 1-297 C77Y/L198V/A201T/G273E)
Protocol: as §1, with “The binding of the antibody variants of the present invention raised to canine CD20 can be assessed by FACS analysis for their binding to feline CD20 according to standard immunological techniques (see Veterinary Immunology and Immunopathology 2005, 106:179-196; Brousseau et al., Manual of Immunology Methods, CRC Press, 1998). In” for “In”

recombinant canine CD20 = molecular target: T3, recombinant canine CD20 (Canis lupus familiaris, UniProt Q3C2E2, A201T/C77Y/G273E/L198V); test: Competition experiments (epitope mapping) on CHO cells expressing recombinant canine CD20; format: binding; conditions: unlabelled competitor 25 μg/mL; for percentage of inhibition (PI), labeled antibody CD20-1: biotin-labeled CD20-1 2 μg/mL; for percentage of inhibition (PI), labeled antibody CD20-2: biotin-labeled CD20-2 2 μg/mL; for percentage of inhibition (PI), labeled antibody CD20-5: biotin-labeled CD20-5 2 μg/mL
T3 construct: are transfected with an expression vector encoding the full-length canine CD20 protein; expressed in transfected cells; host or cells: CHO cells (CHO-DG44)
T3 sequence (Q3C2E2 1-297 C77Y/L198V/A201T/G273E): T1 sequence (Q3C2E2 1-297 C77Y/L198V/A201T/G273E)
Protocol: Competition experiments are performed using standard techniques. Briefly, biotinylated recombinant anti-canine CD20 antibodies are titrated on CHO cells expressing recombinant canine CD20. Cells are first incubated with an excess of unlabelled recombinant anti-canine CD20 antibody (25 μg/mL). Thereafter, cells are incubated with a biotin-labeled antibody at 2 μg/mL. After washing, cells are incubated with streptavidin- phycoerythrin and fluorescence is analyzed by flow cytometry. An irrelevant antibody is used as negative control for inhibition. Results are expressed as a ratio between fluorescence intensity of the cells pre-incubated with the unlabelled antibody and the fluorescence intensity obtained for each biotinylated antibody alone. The percentage of inhibition (PI) is calculated by the following formula: PI=[1−(Experimental-Background)/Biotinylated antibody alone−Background)]×100%.

[4] = test system: B lymphocyte cell population; test: Depletion of B cells in vivo (CD21 flow cytometry); parameters: species or system beagle dogs; conditions: three consecutive doses 2.4 mg/kg to 5.0 mg/kg
Protocol: Three beagle dogs receive three consecutive dosages of the antibody CD20-2 (VET305) ranging from […] to 5.0 mg/kg every 5 days. Blood samples drawn at several time points are centrifuged at 2000 RPM for 5 min. Plasma is removed for assay of the antibody levels. The pellet containing peripheral blood leukocytes and red blood cells is resuspended in a plasma equivalent volume of phosphate saline solution (Dulbecco's Phosphate-Buffered Saline, Mediatech, Cat No. 21-030-CM) for quantitation of lymphocyte populations by flow cytometry. A 0.1 mL volume of the cell preparation is distributed into micro-centrifuge tubes. Labeled monoclonal antibody with specificity for the canine lymphocyte surface marker CD21 is added to the vial to identify the B lymphocyte cell population. An additional sample is included with no reagents for determination of autofluorescence. Cells are incubated with the fluorescent antibody for 30 min. Red blood cell were then lyzed for 15 min using a lysis buffer (Red Blood Cell Lysis Buffer, Biolegend,Cat No. 420301) and then washed prior to analysis on a Becton Dickinson FACS instrument.

[5] = Tolerability of weekly dosing; format: in vivo; conditions: weekly dose over 4 weeks
[6] = Half-life of recombinant anti-canine CD20 antibody in beagle dogs (plasma ELISA); format: in vivo
Protocol: The half-life of the recombinant anti-canine CD20 antibody are assessed. In this example, the half-life of antibody CD20-2 (VET305) is assessed by dosing beagle dogs intravenously. Blood is collected for analysis of CD20-2 in plasma samples harvested as whole blood treated with Ethylenediaminetetraacetic acid (EDTA) as the anticoagulant. An enzyme linked immunosorbant assay (ELISA) method is utilized to determine the plasma antibody concentrations. In this assay, a 96-well plate is coated with a rabbit polyclonal antibody raised to the variable domain of the antibody CD20-2. The antibody CD20-2 in standards or in samples is captured by the polyclonal antibody and is detected by an enzyme conjugated anti-dog secondary antibody. A non-linear regression fit of the standards is used to determine the recombinant antibody concentrations in plasma.

[7] = multiple doses 2.0 to 5.0 mg/kg

Molecule: Rituximab: a monoclonal antibody to the human CD20 antigen
reactivity with canine B cells (canine B cells): does not react with canine B cells

Kd [2]: 1.2 nM
binding to recombinant canine CD20 (in words) [3]: effective binding
mean fluorescence, Canine CD20 [3]: 2769 mean fluorescence units
percentage of inhibition (PI), labeled antibody CD20-1 (recombinant canine CD20): 107.07%
percentage of inhibition (PI), labeled antibody CD20-2 (recombinant canine CD20): 6.47%
percentage of inhibition (PI), labeled antibody CD20-5 (recombinant canine CD20): 85.88%
B1: CD20-5: anti-canine CD20 antibody; full length HC SEQ ID NO. 40, LC SEQ ID NO. 41 (antibody)
heavy: QVQLKQSGAELVKPGASVKISCKASGYTFTDYYINWVKQRPGQGLEWIGKIGPRSGSIYYNEKFKGKATLTADKSSSTAYMQLRSLTSEDSAVYFCAVLKWGQGTLVTVSSASTTAPSVFPLAPSCGSQSGSTVALACLVSGYFPEPVTVSWNSGSLTSGVHTFPSVLQSSGLYSLSSMVTVPSSRWPSETFTCNVAHPASKTKVDKPVPKRENGRVPRPPDCPKCPAPEMLGGPSVFIFPPKPKDTLLIARTPEVTCVVVDLDPEDPEVQISWFVDGKQMQTAKTQPREEQFNGTYRVVSVLPIGHQDWLKGKQFTCKVNNKALPSPIERTISKARGQAHQPSVYVLPPSREELSKNTVSLTCLIKDFFPPDIDVEWQSNGQQEPESKYRTTPPQLDEDGSYFLYSKLSVDKSRWQRGDTFICAVMHEALHNHYTQKSLSHSPGK
light: DAVMTQIPLTLSVTIGQPASISCKSSQSLLHSDGKTYLNWLLQRPGQSPKRLIYLVSKLDSGVPDRFTGSGSGTDFTLKISRVEAEDLGVYYCWQGTHFPQTFGGGTHLTVLGQPKASPSVTLFPPSSEELGANKATLVCLISDFYPSGVTVAWKADGSPITQGVETTKPSKQSNNKYAASSYLSLTPDKWKSHSSFSCLVTHEGSTVEKKVAPAECS
modifications: canis familiaris/mus musculus
notes: anti-canine CD20 antibody; 41
mean fluorescence, Control Cells (Control Cells): 215 mean fluorescence units
mean fluorescence, Feline CD20 [1]: 2048 mean fluorescence units
binding to feline CD20 (in words) [1]: bind feline CD20

binding to recombinant canine CD20 (in words) [3]: effective binding
mean fluorescence, Canine CD20 [3]: 2340 mean fluorescence units
percentage of inhibition (PI), labeled antibody CD20-1 (recombinant canine CD20): 0.90%
percentage of inhibition (PI), labeled antibody CD20-2 (recombinant canine CD20): 124.33%
percentage of inhibition (PI), labeled antibody CD20-5 (recombinant canine CD20): 3.69%
B2: CD20-2: anti-canine CD20 antibody; full length HC SEQ ID NO. 38, LC SEQ ID NO. 39 (antibody)
heavy: QVQLQQSRAELVRPGASVTLSCKPSGYTFTDYEVHWVKQTPVHGLEWIGAIDPETGGTADNQKFKGKAILTADKSSSTAYMELRSLTSEDSAVYYCTNFVDVWGTGTTVTVSSASTTAPSVFPLAPSCGSQSGSTVALACLVSGYFPEPVTVSWNSGSLTSGVHTFPSVLQSSGLYSLSSMVTVPSSRWPSETFTCNVAHPASKTKVDKPVPKRENGRVPRPPDCPKCPAPEMLGGPSVFIFPPKPKDTLLIARTPEVTCVVVDLDPEDPEVQISWFVDGKQMQTAKTQPREEQFNGTYRVVSVLPIGHQDWLKGKQFTCKVNNKALPSPIERTISKARGQAHQPSVYVLPPSREELSKNTVSLTCLIKDFFPPDIDVEWQSNGQQEPESKYRTTPPQLDEDGSYFLYSKLSVDKSRWQRGDTFICAVMHEALHNHYTQKSLSHSPGK
light: DVVMSQSPSSLAVSVGEKVTMSCKSSQSLLYSGNQKNYLAWYQQKPGQSPRLLIYWASTRESGVPDRFTGSGSGTDFTLTISSVKAEDLAVFYCQQYYNYPLTFGGGTHLTVLGQPKASPSVTLFPPSSEELGANKATLVCLISDFYPSGVTVAWKADGSPITQGVETTKPSKQSNNKYAASSYLSLTPDKWKSHSSFSCLVTHEGSTVEKKVAPAECS
modifications: canis familiaris/mus musculus
notes: anti-canine CD20 antibody; 39
mean fluorescence, Control Cells (Control Cells): 49 mean fluorescence units
duration of depletion after the last dose [4]: at least 10 days
B lymphocyte cell percentage after treatment ([4]; every 5 days): decrease in-B lymphocyte cell percentage
mean fluorescence, Feline CD20 [1]: 2209 mean fluorescence units
binding to feline CD20 (in words) [1]: bind feline CD20
adverse effects on clinical and behavioral observations or body weights [5]: no adverse effects
tolerability [5]: well tolerated locally and systemically
change of half-life values ([6]; consecutive administration): increase after consecutive administration
elimination half life [6, 7]: one week
plasma antibody concentrations (in words) [6, 7]: increases overtime and persists at significant levels
volume of distribution [6, 7]: approximating plasma volume
plasma antibody concentrations (in words) ([6]; single dose 2.4 mg/kg): high plasma antibody concentrations are achieved in all animals

Reference: patent US9616120B2, “Monoclonal antibodies directed to CD20” (VET THERAPEUTICS, INC., priority 2010, dated 2017)
